According to patent publication WO2015031626A1 (dated 2015):

B1: anti-cMet 224D10 F(ab')2 fragment antibody (antibody, V domains shown)
VH: DLQLQESGPGLVKPSQSLSLTCSVTGYSITSAYFWSWIRQFPGNKLEWMGFINYDGTNNYNPSLKNRISITRDTSKNQFFLRLNSVTTDDTATYYCTRDRTFAYWGQGTLVTVSA
VL: DIVLTQSPATLSVTPGDRVSLSCRASQRIYNYLHWYQQKSHESPRLLIKYASQSISGIPSRFSGSGSGTDFILTINSVETEDFGMYFCQQSNSWPLTFGAGTKLELRR
modifications: acridinium conjugate (site not stated)
notes: also called 224D10 F(ab') 2 fragment conjugate
B2: anti-cMet 11E1 monoclonal antibody (hybridoma CNCM I-3724) (antibody, V domains shown)
VH: QVQLQQSGAELAKPGASVKMSCKASGYTFTSYWMNWVKQRPGQGLEWIGYINPTTGSTDYNQKLKDKATLTADKSSNTAYMQLSSLTSEDSAVYYCAIGGYGSWFAYWGQGTLVTVSA
VL: QIVLTQSPAIMSASPGEKVTLTCSASSSVSSTYLYWYQQKPGSSPKLWIYTTSILASGVPARFSGSGSGTSYSLTISSMETEDAASYFCHQWSSYPFTFGSGTKLDIK
notes: summary and claims call them variable heavy and variable light domains; Hybridoma monoclonal, coated on magnetic microparticles (capture) or labelled with acridinium (conjugate); also called m11E1; mAb 11E1

Tests used:
[1] = target: T1, recombinant human scMet antigen, cMet (25-932)-HIEGRMD-6His (human, UniProt P08581 25-932); experiment: … scMet B sandwich immunoassay, 224D10 F(ab')2 as acridinium conjugate
T1 construct: this entry is used for those rows too; also called soluble cMet; scMet B Sample
T1 sequence (P08581 other isoform, or with tags, fused parts or gaps limits assumed): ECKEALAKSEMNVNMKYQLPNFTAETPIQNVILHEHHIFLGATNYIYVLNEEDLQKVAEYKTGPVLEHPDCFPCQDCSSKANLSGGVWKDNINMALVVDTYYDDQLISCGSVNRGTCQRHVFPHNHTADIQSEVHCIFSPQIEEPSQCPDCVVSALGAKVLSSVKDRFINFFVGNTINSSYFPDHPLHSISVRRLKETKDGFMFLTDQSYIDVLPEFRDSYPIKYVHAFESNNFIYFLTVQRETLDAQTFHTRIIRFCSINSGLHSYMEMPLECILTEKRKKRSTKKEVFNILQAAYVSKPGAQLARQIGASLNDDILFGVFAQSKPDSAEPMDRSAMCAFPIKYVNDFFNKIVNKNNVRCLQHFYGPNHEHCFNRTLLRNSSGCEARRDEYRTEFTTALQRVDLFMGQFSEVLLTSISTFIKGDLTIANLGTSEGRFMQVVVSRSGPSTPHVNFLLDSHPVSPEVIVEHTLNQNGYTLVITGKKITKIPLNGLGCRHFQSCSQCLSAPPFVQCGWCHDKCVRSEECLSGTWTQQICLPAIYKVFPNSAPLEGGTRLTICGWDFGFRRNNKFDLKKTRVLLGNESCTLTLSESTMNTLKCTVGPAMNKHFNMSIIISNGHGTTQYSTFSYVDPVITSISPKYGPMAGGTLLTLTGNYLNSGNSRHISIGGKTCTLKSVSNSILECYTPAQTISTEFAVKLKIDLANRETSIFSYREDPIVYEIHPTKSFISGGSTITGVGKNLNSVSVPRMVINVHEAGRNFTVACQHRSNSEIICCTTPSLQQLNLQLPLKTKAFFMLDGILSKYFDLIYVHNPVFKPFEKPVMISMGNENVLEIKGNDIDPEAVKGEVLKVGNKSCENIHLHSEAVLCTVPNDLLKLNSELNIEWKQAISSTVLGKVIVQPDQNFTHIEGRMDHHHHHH

[2] = target: T1, recombinant human scMet antigen, cMet …; experiment: … chemiluminescent microparticle sandwich immunoassay on recombinant scMet
[3] = target: T2, free cMet (SEQ ID NO: 33) bound to Alexa-488 dye (human, UniProt P08581 25-932, Alexa-488 dye (site not stated)); experiment: FRET binding titration in solution
T2 construct: also called cMet-A488
T2 sequence (P08581 other isoform, or with tags, fused parts or gaps limits assumed): as above

| Binder | binding result [1] | binding result [2] | binding result [3] |
| --- | --- | --- | --- |
| B1 | binds |  |  |
| B2 |  | binds | binds |
